From patent US20030022283A1 (published 2003) come the findings set out here.

A word on the IC50: it is the point on the concentration scale where inhibition reaches its midpoint. A high value points to lower potency. For orientation: Ki means the equilibrium dissociation constant of an inhibitor or competing ligand from its target.

Test [1] has as its target Rat NPY Y5 receptor, Y555 clone (rat) (UniProt Q63634). The experiment in a line: competition with [125I]PYY, membranes of transiently transfected COS-7 cells, average of two experiments.
For test [2], the target named is T1, Rat NPY Y5 receptor, Y861 clone (rat, UniProt Q63634 1-445).
T1 sequence: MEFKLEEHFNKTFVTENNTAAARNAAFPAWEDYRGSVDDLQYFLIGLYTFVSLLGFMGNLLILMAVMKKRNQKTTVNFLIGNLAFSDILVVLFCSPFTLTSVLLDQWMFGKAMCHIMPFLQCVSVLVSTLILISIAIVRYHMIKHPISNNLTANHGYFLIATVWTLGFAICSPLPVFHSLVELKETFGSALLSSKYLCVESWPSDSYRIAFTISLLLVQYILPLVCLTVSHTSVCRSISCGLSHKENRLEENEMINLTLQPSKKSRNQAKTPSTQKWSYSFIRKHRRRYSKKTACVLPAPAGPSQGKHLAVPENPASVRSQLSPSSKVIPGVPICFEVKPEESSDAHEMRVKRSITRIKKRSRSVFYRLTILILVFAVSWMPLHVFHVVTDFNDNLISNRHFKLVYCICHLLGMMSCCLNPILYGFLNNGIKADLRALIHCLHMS
In words: competition with [125I]PYY, membranes of transiently transfected COS-7 cells, one of the two experiments averaged.

For test [3], the target named is Rat NPY Y5 receptor, 6B clone (Y217.24.13.6B) (rat) (UniProt Q63634). The test is described as above.
Test [4] addresses Rat NPY Y5 receptor, Y555 clone (rat) (UniProt Q63634). The description is as above.
The target in test [5] is T1, Rat NPY Y5 receptor, Y861 clone. In words: competition with [125I]PYY, membranes of transiently transfected COS-7 cells.
Test [6] shares this target. In words: competition with [125I]PYY, rat Y5 Y861 clone.
Test [7] has as its target Human NPY Y5 receptor (human) (UniProt Q15761). The experiment in a line: competition with [125I]PYY, membranes of transiently transfected cells, one of the two experiments averaged.
Test [8] addresses T1, Rat NPY Y5 receptor, Y861 clone. In words: competition with [125I]PYY, membranes of transiently transfected COS-7 cells, average of two experiments.
For test [9] the target is unchanged. In words: competition with [125I]PYY, membranes of stably transfected 293S cells.
Test [10] concerns the target Y5 receptor (clone not specified), transiently expressed in COS-7 cells. The experiment in a line: saturation binding, membranes of transiently transfected cells, nonlinear regression.
Test [11] concerns the target T2, Rat Y4/PP1 receptor (clone) (rat, UniProt Q63447 1-375).
T2 construct: also called Rat Y4/PP1 (clone)
In words: competition with rat [125I]PP, rat Y4/PP1 clone.

Test [12] addresses T1, Rat NPY Y5 receptor, Y861 clone. In words: cell-based or functional assay.
In test [13] the target is T3, Human NPY Y5 receptor (human, UniProt Q15761 1-445).
T3 sequence: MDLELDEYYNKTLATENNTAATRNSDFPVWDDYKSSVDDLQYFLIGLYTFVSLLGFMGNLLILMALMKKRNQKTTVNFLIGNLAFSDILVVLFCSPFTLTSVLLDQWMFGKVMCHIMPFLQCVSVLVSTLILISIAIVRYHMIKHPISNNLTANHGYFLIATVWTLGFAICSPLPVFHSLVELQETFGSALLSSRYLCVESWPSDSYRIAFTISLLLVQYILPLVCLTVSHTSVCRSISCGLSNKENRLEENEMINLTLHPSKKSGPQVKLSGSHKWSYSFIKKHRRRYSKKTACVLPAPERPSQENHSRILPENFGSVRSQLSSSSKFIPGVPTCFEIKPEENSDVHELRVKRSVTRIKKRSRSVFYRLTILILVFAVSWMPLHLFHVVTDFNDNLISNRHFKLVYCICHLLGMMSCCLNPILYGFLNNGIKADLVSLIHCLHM
In words: cell-based or functional assay.

Test [14] deals with T3, Human NPY Y5 receptor. The experiment in a line: competition with [125I]PYY, membranes of stably transfected 293 cells.
Test [15] concerns the target T4, Rat NPY Y5 receptor, 6B clone (Y217.24.13.6B) (rat, UniProt Q63634 1-445).
T4 construct: 445 amino acid protein; assayed as membranes of transiently transfected COS-7 cells; Has proline where Y555/Y589/Y861 have leucine in the first transmembrane domain; also called RAT 6B Clone; Y5 clone
T4 sequence: T1 sequence with L61P
In words: competition with [125I]PYY, membranes of transiently transfected COS-7 cells.
Protocol: The binding assays were performed on GF/C Millipore (Bedford, Mass.) 96-well plates pretreated with 0.02% polyethylenimine (PEI) for at least 2 hours prior to use. The PEI was aspirated from the plates on a vacuum manifold immediately before the samples were added to the wells. All peptides, tissue and radioligand were diluted with binding buffer (25 mM Tris, 120 mM NaCl, 5 mM KCl, 1.2 mM KH₂PO₄, 2.5 mM CaCl₂, 1.2 mM MgSO₄, 0.1% BSA and 0.5 mg/ml bacitracin, pH 7.4).
Each point is the average value of triplicate determinations from a representative experiment. […] Kᵢ values were calculated from the IC₅₀ values using the Cheng-Prusoff correction, such that Kᵢ=IC₅₀/(1±(L/Kd)), where L is the radioligand concentration and Kd is the dissociation constant.

For test [16], the target named is T3, Human NPY Y5 receptor. The experiment in a line: competition with [125I]PYY, membranes of transiently transfected cells, average of two experiments.
Test [17] addresses T3, Human NPY Y5 receptor. The experiment in a line: competition with [125I]PYY, membranes of transiently transfected cells, one of the two experiments averaged.

Substitutions are numbered along the chain they refer to. Where “and” joins values, the source holds several entries; their conditions need not be identical. Equal values may be shown once.

T2 sequence (Q63447 whole entry): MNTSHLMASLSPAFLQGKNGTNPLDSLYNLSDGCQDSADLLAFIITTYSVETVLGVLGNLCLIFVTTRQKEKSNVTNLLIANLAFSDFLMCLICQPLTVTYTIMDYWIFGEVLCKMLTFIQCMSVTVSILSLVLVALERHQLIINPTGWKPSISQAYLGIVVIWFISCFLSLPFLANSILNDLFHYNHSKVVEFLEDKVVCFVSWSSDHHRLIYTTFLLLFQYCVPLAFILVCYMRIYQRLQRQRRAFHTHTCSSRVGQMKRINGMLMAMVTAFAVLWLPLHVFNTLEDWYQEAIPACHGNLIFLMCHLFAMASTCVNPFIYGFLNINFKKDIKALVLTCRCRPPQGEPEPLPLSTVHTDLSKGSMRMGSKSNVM
Sequence of (13-36)PYY (species not stated, Table 2) (peptide) (P10082 41-64): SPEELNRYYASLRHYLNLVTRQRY

As to “porcine (13-36)NPY (from UniProt P01304 22-45) (peptide)”, the IC50 in test [1] was 40 nM; in [4] it was 38 nM and 41 nM. In addition, the Ki in test [2] is 25 nM and 19 nM; in test [3] it was 7.9 nM and 7.5 nM.

For the molecule “porcine (18-36)NPY (from UniProt P01304 27-45) (peptide)”, the inhibition constant Ki in [5] worked out at 206 nM.

(32D-Trp)NPY (peptide) showed an IC50 in test [6] of 7 nM. In other words, the single-digit nanomolar range.

Turning to “rat (13-36)NPY (as printed in Table 1) (from UniProt P07808 42-65) (peptide)”, the Ki in [5] was 86 nM; in test [7], 89 nM and 65 nM.

Consider “porcine (3-36)NPY (from UniProt P01304 12-45) (peptide)”, for which the results for the Ki in test [8] and in test [2] were 2 nM and 2.3 nM, respectively.

Take “(13-36)PYY (species not stated, Table 2) (peptide)”: the Ki in test [9] turned out to be 29 nM.

Molecule “[125I]PYY (radioiodinated peptide YY) (ligand)” gave a receptor density (Bmax) (fmol/mg protein) in test [10] of 140.

As for “rat/human (Leu31Pro34)(3-36)NPY (from UniProt P01303 31-64) (peptide)”, the IC50 in test [11] came to 20 nM.

With APLEPMYPGDYATHEQRAQYETQLRRYINTLTRPRY (ligand, UniProt P06303 30-65, looked up, mature; also called rPP; rat PP) [rat pancreatic polypeptide], the “EC50, forskolin-stimulated adenylate cyclase (cAMP radioimmunoassay), stably transfected 293S cells” value in [12] was determined as 112 nM. For the same molecule, the “EC50, forskolin-stimulated adenylate cyclase (cAMP radioimmunoassay), stably transfected 293 cells” value with Human NPY Y5 receptor [13] is over 1000 nM. Further, the concentration for half-maximal inhibition (IC50) in test [6] turned out to be 325 nM; in test [11], 0.071 nM. The inhibition constant (Ki) with Human NPY Y5 receptor [14] is 286 nM; in test [9], 203 nM; in test [15], 62 nM; in [5], 296 nM; with Human NPY Y5 receptor [16], 436 nM; with Human NPY Y5 receptor [17] it was 290 nM and 582 nM.

Take APLEPVYPGDNATPEQMAQYAADLRRYINMLTRPRY (ligand, UniProt P01298 30-65, looked up, mature; also called hPP) [human pancreatic polypeptide]: the “EC50, forskolin-stimulated adenylate cyclase (cAMP radioimmunoassay), stably transfected 293S cells” value in test [12] was found to be 1 nM. Also, the IC50 in test [6] was 4.9 nM; in test [11] it was 0.065 nM. Further, the Ki in [9] amounted to 2.5 nM; in [5], 4 nM.
